Reference: PMC3795024, “A Structure-Guided Mutation in the Major Capsid Protein Retargets BK Polyomavirus” (PLoS Pathogens, 2013)

Legend:
SV40 VP1 = molecular target: T1, SV40 VP1 (Betapolyomavirus macacae, UniProt P03087); assay: STD NMR; type: binding; details: 19-22 µM protein, 1 mM ligand, pH 7.5, 283 K, D2O
T1 construct: recombinant VP1 pentamer, detected with anti-poly-histidine antibody

[1] = molecular target: BKPyV VP1 pentamer (30-300) F75V (BK polyomavirus (BKPyV)); assay: SEC; gel filtration of purified mutant pentamers; data not shown
[2] = molecular target: BKPyV VP1 pentamer (30-300) F75W (BK polyomavirus (BKPyV)); assay: as above
[3] = molecular target: BKPyV VP1 pentamer (30-300) H138A (BK polyomavirus (BKPyV)); assay: as above
[4] = molecular target: BKPyV VP1 pentamer (30-300) L62W (BK polyomavirus (BKPyV)); assay: as above
[5] = molecular target: BKPyV VP1 pentamer (30-300) S274A (BK polyomavirus (BKPyV)); assay: as above
[6] = molecular target: BKPyV VP1 pentamer (30-300) S274A/T276A (BK polyomavirus (BKPyV)); assay: as above
[7] = molecular target: BKPyV VP1 pentamer (30-300) T276A (BK polyomavirus (BKPyV)); assay: as above
[8] = molecular target: BKPyV VP1 pentamer (amino acids 30-300 of BKPyV VP1, His-tag cleaved) (BK polyomavirus (BKPyV)); assay: crystal structure; sitting drop vapor diffusion at 20°C, 16–18% PEG 3,350, 0.1 M HEPES pH 7.5, 0.25 M LiCl, protein with 20 mM DTT; unliganded and soaked with 20 mM GD3 oligosaccharide

CC(=O)N[C@H]1[C@H](O[C@@H]2[C@H](O[C@]3(C(=O)O)C[C@H](O)[C@@H](NC(C)=O)[C@H]([C@H](O)[C@H](O)CO)O3)[C@@H](O)[C@H](O[C@H]3[C@H](O)[C@@H](O)C(O)O[C@@H]3CO)O[C@@H]2CO)O[C@H](CO)[C@H](O)[C@@H]1O[C@@H]1O[C@H](CO)[C@H](O)[C@H](O)[C@H]1O (stereo partly drawn) [GM1, GM1 oligosaccharide]
STD NMR (SV40 VP1): as efficient as for the SV40 VP1-GM1 pair, which was included for comparison

BKPyV VP1 pentamer (30-300) F75V (domain or fragment)
stoichiometry N [1]: 5

BKPyV VP1 pentamer (30-300) F75W (domain or fragment)
stoichiometry N [2]: 5

BKPyV VP1 pentamer (30-300) H138A (domain or fragment)
stoichiometry N [3]: 5

BKPyV VP1 pentamer (30-300) L62W (domain or fragment)
stoichiometry N [4]: 5

BKPyV VP1 pentamer (30-300) S274A (domain or fragment)
stoichiometry N [5]: 5

BKPyV VP1 pentamer (30-300) S274A/T276A (domain or fragment)
stoichiometry N [6]: 5

BKPyV VP1 pentamer (30-300) T276A (domain or fragment)
stoichiometry N [7]: 5

BKPyV VP1 pentamer (amino acids 30-300 of BKPyV VP1, His-tag cleaved) (domain or fragment)
stoichiometry N [8]: 5
